Results taken from patent US10364296B2, “Antibodies specific for MMP9” (CALYPSO BIOTECH SA, priority 2014, dated 2019).
Changes are numbered by the printed parent chain. One block for each molecule: values may come before it.

Key:
[1] = molecular target: Human MMP9 (i.e. activated MMP9) (Homo sapiens, UniProt P14780); experiment: MMP9 assay: DQ-gelatin digestion by pre-activated (caspase-cleaved) MMP9; assay type: biochemical; settings: MMP9 assay with highly purified activated MMP9
Procedure: The functional neutralization of MMP9 catalytic activity towards the fluorogenic polymer substrate DQ-gelatin by some antibodies according to the invention was evaluated. The signature activity of MMP9 (and MMP2) is gelatin degradation. Gelatin is essentially an irreversibly denatured form derived from various collagens, several of which are considered key physiological substrates for MMP9. Unlike small peptidic substrates, the binding and recognition of gelatin (similar to that of collagen) by MMP9 is complex and known to be mediated via regions of the molecule other than the active site, including the fibronectin and PEX domains. In order to retain these physiologically relevant ‘exosite’ interactions and to facilitate the isolation of potential ‘non-classical’ allosteric neutralizer classes, a fluorogenically quenched soluble gelatin polymer (DQ-gelatin) was chosen as the key substrate for plate-based screening and ranking purposes. Substrate hydrolysis was mediated by truncated fragment of MMP9 (ie. pro-domain removed). The assay was performed in two modes. The first mode, named “MMP9 assay”, utilized pre-activated MMP9 (from engineered MMP9 containing a LETD caspase 8 recognition motif at the native cleavage junction) in which the pro-domain was first removed via directed caspase 8 cleavage. […]

MMP3-activated MMP9 [2] = molecular target: T1, MMP3-activated MMP9 (Homo sapiens, UniProt P14780); experiment: Surface Plasmon Resonance (BIAcore) binding; settings: for SPR binding to MMP3-activated MMP9 (in words): sensograms, 4.7 to 150 nM
Procedure: (§1) Sensorgrams of kinetics of binding are reported. Resonance unit (RU). All y axis-response (RU); all x axis-time (s).
(§2) Binding of anti-MMP9 antibodies towards recombinant human MMP9 antigen was characterized using standard Surface Plasmon Resonance (SPR) assay. In a first step, anti-MMP9 antibodies were captured by anti-human Fc antibody immobilized onto a BIAcore sensor chip. In a second step, pro-MMP9 or MMP3-activated MMP9 were titrated from 4.7 to 150 nM in 2-fold dilutions.

human pro-MMP9 [3] = molecular target: T2, human pro-MMP9 (Homo sapiens, UniProt P14780); experiment: Surface Plasmon Resonance (BIAcore) binding; settings: for SPR binding to pro-MMP9 (in words): sensograms, 4.7 to 150 nM
Procedure: as §1, §2

MMP3-activated MMP9 [4] = molecular target: T1, MMP3-activated MMP9; experiment: Direct binding ELISA; settings: biotinylated antibody, antigen coated at 2.5 μg/ml
Procedure: (§3) MMP9 antigens were coated at 2.5 μg/ml. Controls were streptavidin-HRP alone (closed triangles), or human IgG4 isotype control plus biotinylated anti-human-IgG second step Fab antibody (closed squares).
(§4) Direct binding capacities of anti-MMP9 antibodies towards human pro-MMP9 and MMP3-activated human MMP9, respectively, were assessed using a standard ELISA protocol. Briefly, 96-well plates were coated with (2.5 μg/ml) of either form of MMP9 for 16 h at room temperature.

human pro-MMP9 [5] = molecular target: T2, human pro-MMP9; experiment: Direct binding ELISA; settings: biotinylated antibody, antigen coated at 2.5 μg/ml
Procedure: as §3, §4

[6] = tested on: MGC803 human gastric cancer cells; experiment: Cancer cell invasion through Matrigel-coated transwell; assay type: cell-based; settings: 10 μg/ml antibody, PMA 100 ng/ml, 16 h
Procedure: MGC803 human gastric cancer cells were incubated with Phorbol 12-Myristate 13-Acetate (PMA) and with a broad chemical inhibitor of MMPs (GM-6001), anti-MMP9 antibody (F20-VH/B08-VLc), isotype control or medium alone. Invading cells were quantified after 16 hours using Calcein-AM. Each condition was performed in duplicates and means and SD of fluorescence units are reported.
Cancer cell line invasion was assessed using Matrigel-coated transwells. Insert membranes of transwells (provided in kit from Cultrex—3455-024) were coated with basement membrane extract (BME ×0.5; provided in Cultrex's kit) and incubated for 24 h at 37° C. Meanwhile, MGC803 (human gastric cancer cell line—Easy-Bio, China) were starved in RPMI culture medium (Gibco—52400025) deprived of serum (starving medium). […] One hundred μl of treated cells were seeded into Matrigel-coated transwells and 500 μl of RPMI medium containing 10% FCS were added in the lower side of the transwell. Plates were incubated for 16 h at 37° C. Invading cells were quantified by incubation of the bottom side of transwell membrane with Calcein-AM, whose cleavage into fluorescent Calcein is proportional to cell counts. Emitted fluorescent signal (Excitation at 485 nm, emission at 520 nm) reflects efficiency of cell invasion through Matrigel.

MMP3-activated MMP9 [7] = molecular target: T1, MMP3-activated MMP9; experiment: Competitive binding ELISA; settings: pre-incubation with 50 μg/mL purified antibody
From the text: For panels A, B, C, results are expressed as mean±SD of corrected absorbance (A450-A620) for each condition performed in duplicate.

[8] = tested on: heterotopic intestinal grafts in C57BL/6 mice; experiment: Heterotopic transplant mouse model of intestinal fibrosis; assay type: in vivo
Procedure: Donor (green fluorescent protein-marked C57BL/6-Tg UBC-GFP mice) small bowel resections were transplanted subcutaneously into the neck of recipient C57BL/6 mice. Mice were injected intraperitoneally at day 5, 8 and 10 with 30 mg/kg of an anti-MMP9 antibody of the invention (F20-VH/B08-VLc, variant F20-VH-GL1-V4-V9/B08-VL-GL6c), or isotype control antibody (IgG4), 5 mice per group. Small bowel grafts were explanted 14 days after transplantation. After explant, each graft was divided into three equal segments. The central segment was fixed in 4% formalin, and prepared for histopathological assessment. The two outer segments were snap frozen in liquid nitrogen and stored at −70° C. until RNA or protein extraction.
Histologic cross sections were stained with Sirius red to highlight collagen (red stain). Collagen layer thickness was determined by an independent investigator blinded to the type of experiment. Microscopic assessment was done using an AxioCam MRc5 on a Zeiss Axiophot microscope. The thickness of the collagen layer was measured with the AxioVision Release 4.7.2 software (Zeiss). Thickness was calculated from eight places in representative areas (in eight samples investigated for each time point) at 100-fold magnification. Statistical analyses were performed using PRISM 6 software. Unpaired t test was used for comparison among groups.

[9] = tested on: DSS-induced colitis in BALB/c mice; experiment: DSS-induced colitis mouse model; assay type: in vivo; settings: Day 14, vs isotype control
Procedure: The therapeutic efficacy of an anti-MMP9 antibody according to the invention was assessed in a DSS-induced colitis model in BALB/c mice. Colitis was induced with 4% (w/v) DSS in drinking water for 5 days. Doses of 30 mg/kg F20-VH/B08-VLc (variant F20-VH-GL1-V4-V9/B08-VL-GL6c) or isotype control (IgG4) antibodies were intraperitoneally injected to groups of 10 mice at day 6, 9 and 12, and animals were sacrificed at day 14.
The course of the disease was evaluated in blind fashion by video endoscopy of the lower colon at days 6, 10 and 14. Colitis was scored visually on a scale of 0-14 based on the degree of ulceration, vascularisation, and granularity present in tissue and colon length involved as follows: ulceration (0, 1, 2 or 3), masking of vascularisation (0, 1, 2 or 3), granularity (0, 1, 2 or 3), erythema (0, 1, 2 or 3), length involved (0, 1: localized, 2: diffuse). Each mouse was assigned a single endoscopy score corresponding to the damage observed throughout the entire length of the colon examined.
At study termination (Day 14), distal colon was excised from each mouse, formalin-fixed and embedded in paraffin and sectioned for histology. All sections were stained with haematoxylin and eosin and examined in a fashion blind as to treatment groups. Tissues were scored for epithelium damage and infiltration of inflammatory cells according to the scoring scale of […] for each parameter. The histology score represents the sum of the epithelium damage and infiltration of inflammatory cell scores, and thus ranges from 0 to 8.

T1 sequence (P14780 107-707): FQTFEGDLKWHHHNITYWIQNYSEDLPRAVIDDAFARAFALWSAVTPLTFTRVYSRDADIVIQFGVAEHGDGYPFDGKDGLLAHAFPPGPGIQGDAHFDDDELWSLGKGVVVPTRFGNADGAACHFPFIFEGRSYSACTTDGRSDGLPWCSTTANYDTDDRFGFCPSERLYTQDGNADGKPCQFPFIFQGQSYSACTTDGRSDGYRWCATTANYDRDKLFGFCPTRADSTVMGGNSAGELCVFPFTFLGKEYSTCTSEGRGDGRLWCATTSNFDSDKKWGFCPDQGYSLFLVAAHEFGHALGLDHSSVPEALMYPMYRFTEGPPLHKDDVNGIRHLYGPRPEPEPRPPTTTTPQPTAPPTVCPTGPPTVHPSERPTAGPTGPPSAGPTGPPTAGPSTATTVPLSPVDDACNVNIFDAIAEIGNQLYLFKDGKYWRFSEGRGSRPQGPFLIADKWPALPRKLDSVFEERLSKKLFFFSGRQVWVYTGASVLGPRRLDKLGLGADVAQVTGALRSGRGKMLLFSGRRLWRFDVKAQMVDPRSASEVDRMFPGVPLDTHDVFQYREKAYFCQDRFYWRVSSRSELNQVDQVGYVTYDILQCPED
T2 sequence (P14780 20-707): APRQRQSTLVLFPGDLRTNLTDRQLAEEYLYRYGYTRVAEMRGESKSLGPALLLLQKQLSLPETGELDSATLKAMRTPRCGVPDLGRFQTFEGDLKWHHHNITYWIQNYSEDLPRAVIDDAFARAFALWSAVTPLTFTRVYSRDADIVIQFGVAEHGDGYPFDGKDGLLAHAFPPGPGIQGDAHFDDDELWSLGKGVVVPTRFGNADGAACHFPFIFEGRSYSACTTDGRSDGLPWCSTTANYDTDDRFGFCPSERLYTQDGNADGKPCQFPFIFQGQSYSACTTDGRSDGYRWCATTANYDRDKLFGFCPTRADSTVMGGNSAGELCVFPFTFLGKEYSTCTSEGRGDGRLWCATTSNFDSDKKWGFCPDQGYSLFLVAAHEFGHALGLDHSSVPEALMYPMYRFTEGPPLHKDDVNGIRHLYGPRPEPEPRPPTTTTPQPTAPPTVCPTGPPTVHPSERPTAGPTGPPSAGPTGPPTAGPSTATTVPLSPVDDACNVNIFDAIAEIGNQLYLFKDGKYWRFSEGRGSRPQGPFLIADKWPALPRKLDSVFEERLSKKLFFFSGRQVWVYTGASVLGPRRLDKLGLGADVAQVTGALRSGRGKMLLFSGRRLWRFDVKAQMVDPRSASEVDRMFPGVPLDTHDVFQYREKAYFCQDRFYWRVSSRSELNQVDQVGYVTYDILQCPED
Human MMP9 (i.e. activated MMP9), sequence (P14780 107-707 limits assumed): as the sequence (P14780 107-707) above

- decrease of DQ-gelatin digestion (in words) [1]: inactive
- SPR binding to MMP3-activated MMP9 (in words) (MMP3-activated MMP9 [2]): bind well
- SPR binding to pro-MMP9 (in words) (human pro-MMP9 [3]): binds well
- ELISA direct binding to MMP3-activated MMP9 (in words) (MMP3-activated MMP9 [4]): strongly bind
- ELISA direct binding to pro-MMP9 (in words) (human pro-MMP9 [5]): binds well
Molecule: comparative antibody 1: antibody known as AB0041, heavy chain SEQ ID NO: 44, light chain SEQ ID NO: 45; mouse monoclonal, WO 2013/130078 [reference compound]

- SPR binding to MMP3-activated MMP9 (in words) (MMP3-activated MMP9 [2]): bind well
- binding observed to pro-MMP9 (human pro-MMP9 [3]; SPR, at a 150 nM antibody concentration): < 1%
- SPR binding to pro-MMP9 (in words) (human pro-MMP9 [3]): minimal signal
- ELISA direct binding to MMP3-activated MMP9 (in words) (MMP3-activated MMP9 [4]): strongly bind
B1: F20-VH-GL1-V4-V9/B08-VL-GL6c: VH SEQ ID NO: 19; VL SEQ ID NO: 70; reformatted as human IgG4; the F20-VH/B08-VLc variant of Examples 5-12 (antibody, V domains shown)
VH: EVQLVESGGGLVQPGRSLRLSCAASGFTFNDYPMHWVRQAPGKGLEWVSGISSRSGSVGYAESVKGRFTISRDNAKNSLYLQMNSLRAEDTALYYCARDKIYYGSGSYDFYYYYGMDVWGQGTTVTVSS
VL: QSALTQPASVSGSPGQSITISCTGTSNDVGAYNRVSWYQQHPGKAPKLMIYGVSNRPSGVSNRFSGSKSGNTASLTISGLQAEDEADFYCTSYSSSTTSYVVFGGGTKVTVL
modifications: human IgG4 format; heavy chain F20-VH-GL1-V4-V9; light chain B08-VL-GL6c
- inhibition of migration of MGC803 cancer cells through Matrigel [6]: efficiently inhibits migration
- competition with biotinylated comparative antibody 1 for binding to MMP9 (in words) (MMP3-activated MMP9 [7]): does not prevent binding of comparative antibody 1
- ELISA direct binding to pro-MMP9 (in words) (human pro-MMP9 [5]): only shows significant binding to pro-MMP9 at the highest concentration tested
- occlusion of the intestinal lumen of the graft ([8]; 14 days after transplantation): partial occlusion of the intestinal lumen

- Kd (MMP3-activated MMP9 [2]; SPR, MMP3-activated MMP9, calculated from the curves, read-out: KD (nM), antigen MMP9): 11.7 nM
- Kd (human pro-MMP9 [3]; SPR, antibody captured by anti-human Fc, calculated from the curves, read-out: KD (nM), antigen Pro-MMP9): > 15000 nM
B2: F20-VH/B08-VLc: VH SEQ ID NO: 11; VL SEQ ID NO: 69; HO candidate selected for lead optimization; name also used loosely for its tested variant (antibody, V domains shown)
VH: B1 VH with R54N, E62D, A88D, L93V
VL: B1 VL with A8R, I18V, M49L, N62T, Q81L, E83A
modifications: heavy chain F20-VH; light chain B08-VLc
- mean endoscopy score ([9]; 30 mg/kg i.p. day 6, 9, 12, p=0.005): significant improvement
- mean colitis severity score (histology) ([9]; 30 mg/kg i.p.): decrease
- mean score for epithelial damage ([9]; 30 mg/kg i.p.): decreased
- mean score for infiltration of inflammatory cells ([9]; 30 mg/kg i.p.): decreased
- loss of epithelial structure in heterotopic intestinal grafts ([8]; 30 mg/kg i.p. day 5, 8, 10, day 14, vs isotype control): significantly protects against loss of epithelial structure
- collagen layer thickness in heterotopic intestinal grafts ([8]; 30 mg/kg i.p. day 5, 8, 10, day 14, vs isotype control, p<0.0001): reduces collagen layer thickness
